Assay results taken from patent US20240392023A1 (ABCLON, published 2024).

Experiments:
Assay in all cases: cell-based or functional assay
[1] = molecular target: T1, CD30 expressed on cells (CD30-293T, SUDHL1, HDLM-2) (UniProt P28908 19-595)
T1 sequence (looked up): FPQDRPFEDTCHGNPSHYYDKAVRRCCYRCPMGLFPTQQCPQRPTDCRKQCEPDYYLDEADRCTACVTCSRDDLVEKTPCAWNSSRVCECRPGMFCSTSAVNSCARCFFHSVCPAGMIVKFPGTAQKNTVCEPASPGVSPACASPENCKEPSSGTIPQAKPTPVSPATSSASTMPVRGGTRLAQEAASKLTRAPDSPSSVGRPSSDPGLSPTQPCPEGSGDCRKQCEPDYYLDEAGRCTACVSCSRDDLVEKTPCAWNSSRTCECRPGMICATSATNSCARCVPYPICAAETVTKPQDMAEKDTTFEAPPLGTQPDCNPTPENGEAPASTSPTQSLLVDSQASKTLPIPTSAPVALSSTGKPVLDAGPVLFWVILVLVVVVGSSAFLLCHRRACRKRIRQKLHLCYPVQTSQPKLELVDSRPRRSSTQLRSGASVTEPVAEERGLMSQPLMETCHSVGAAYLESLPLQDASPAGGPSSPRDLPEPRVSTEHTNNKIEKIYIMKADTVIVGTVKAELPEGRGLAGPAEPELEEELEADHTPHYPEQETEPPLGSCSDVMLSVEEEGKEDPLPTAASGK

[2] = molecular target: T1, CD30 expressed on cells (CD30-293T, …); remark: listed apart in the source
[3] = molecular target: T1, CD30 expressed on cells (CD30-293T, …); remark: listed apart in the source

B1: scFv CAR of anti CD30 antibody (T1-159), on CAR-T cells (other)
chain: EVQLLESGGGLVQPGGSLRLSCAASGFTFSSYGMSWVRQAPGKGLEWVSSIYYYSGGTYYADSVKGRFTISRDNSKNTLYLQMNSLRAEDTAVYYCARNDYRNNSDFDYWGQGTLVTVSSGGGGSGGGGSGGGGSQSVLTQPPSASGTPGQRVTISCSGSSSNIGSNYVYWYQQLPGTAPKLLIYRNNQRPSGVPDRFSGSKSGTSASLAISGLRSEDEADYYCAAYYPYYYVFGGGTKLTVLGGQAGQTTTPAPRPPTPAPTIASQPLSLRPEACRPAAGGAVHTRGLDFACDIYIWAPLAGTCGVLLLSLVITLYCKRGRKKLLYIFKQPFMRPVQTTQEEDGCSCRFPEEEEGGCELRVKFSRSADAPAYQQGQNQLYNELNLGRREEYDVLDKRRGRDPEMGGKPRRKNPQEGLYNELQKDKMAEAYSEIGMKGERRRGKGHDGLYQGLSTATKDTYDALHMQALPPR
Which “Cytotoxicity (%) against CD30-expressing cell (SUDHL1), CAR-T/Target 0.11” value [1] does the source give for B1 here?
The value was 24%.

What about the “Cytotoxicity (%) against CD30-expressing cell (SUDHL1), CAR-T/Target 0.33” value [1] of the same binder?
Its value is 58%.

What about the “Cytotoxicity (%) against CD30-expressing cell (SUDHL1), CAR-T/Target 1” value [1] of the same binder?
Its value is 88%.

What about the “Cytotoxicity (%) against CD30-expressing cell (CD30-293T), CAR-T/Target 0.11” value [2] of the same binder?
Its value is -4%.

What about the “Cytotoxicity (%) against CD30-expressing cell (CD30-293T), CAR-T/Target 0.33” value [2] of the same binder?
Its value is 60%.

What about the “Cytotoxicity (%) against CD30-expressing cell (CD30-293T), CAR-T/Target 1” value [2] of the same binder?
Its value is 72%.

And the “tumor death rate on HDLM-2 cells, ratio of CAR-T to the target 0.25” value [3]?
Its value is no less than 50%.
